First the molecules themselves.
B1: LRRC45 (parent)
chain: DLSAANEKNLLLQNQVDELERKFR
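Further: lentivirally expressed fusions sorted by FACS into six bins by GFP to DsRed ratio, PSI derived from sequencing read proportions per bin multiplied by bin number.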

In this series the parent is B1. As to the kind of experiment: protein stability index of a GFP-peptide fusion (GPS, HEK-293T) (PSI 1-6); higher = more stable. The note with it: c terminus: a fixed tail appended.
Take DLSAANEKNLLLENQVDELERKFR [Q13E]: the protein stability index was found to be 4.71.

With DLSAANEKNLLLDNQVDELERKFR [Q13D], the protein stability index was found to be 4.63.

Regarding DLSAANEKNLLLVNQVDELERKFR [Q13V], the protein stability index turned out to be 4.53.

Consider DLSAANEKNLLLTNQVDELERKFR [Q13T], for which the protein stability index amounted to 4.11.

With DLSAANEKNLLLSNQVDELERKFR [Q13S], the protein stability index stood at 3.98.

Consider DLLAANEKNLLLQNQVDELERKFR [S3L], for which the protein stability index was determined as 3.51.

Regarding DLGAANEKNLLLQNQVDELERKFR [S3G], the protein stability index worked out at 4.54.

For the variant DLKAANEKNLLLQNQVDELERKFR [S3K], the protein stability index was determined as 4.15.

On to DLQAANEKNLLLQNQVDELERKFR [S3Q], for which the protein stability index is 4.04.

Regarding DLEAANEKNLLLQNQVDELERKFR [S3E], the protein stability index amounted to 4.86.

For the variant DLDAANEKNLLLQNQVDELERKFR [S3D], the protein stability index was 4.64.

As to DLSAANEKNLFLQNQVDELERKFR [L11F], the protein stability index stood at 4.13.

For DLSAANEKNLMLQNQVDELERKFR [L11M], the protein stability index was 3.56.

Consider DLSAANEKNLVLQNQVDELERKFR [L11V], for which the protein stability index is 3.96.

Consider DLSAANEKNLNLQNQVDELERKFR [L11N], for which the protein stability index is 4.5.

On to DLSAANEKNLWLQNQVDELERKFR [L11W], for which the protein stability index is 3.89.

Turning to DLSAANEKNLALQNQVDELERKFR [L11A], the protein stability index worked out at 4.42.

With DLSPANEKNLLLQNQVDELERKFR [A4P], the protein stability index was 4.11.

Consider DLSRANEKNLLLQNQVDELERKFR [A4R], for which the protein stability index came out at 4.07.

Regarding DLSIANEKNLLLQNQVDELERKFR [A4I], the protein stability index is 3.81.

Consider DLSMANEKNLLLQNQVDELERKFR [A4M], for which the protein stability index was 3.49.

For DLSLANEKNLLLQNQVDELERKFR [A4L], the protein stability index stood at 3.06.

For DLSAANEENLLLQNQVDELERKFR [K8E], the protein stability index worked out at 4.56.

DLSAANEGNLLLQNQVDELERKFR [K8G]: the protein stability index turned out to be 4.17.

In the case of DLSAANEQNLLLQNQVDELERKFR [K8Q], the protein stability index came out at 4.12.

DLSAANERNLLLQNQVDELERKFR [K8R]: the protein stability index was 4.15.

Take DLSAANEVNLLLQNQVDELERKFR [K8V]: the protein stability index came out at 3.85.

Consider DLSAANEFNLLLQNQVDELERKFR [K8F], for which the protein stability index was determined as 3.85.

Take DLSAANEHNLLLQNQVDELERKFR [K8H]: the protein stability index was determined as 4.06.

With DLSAANEPNLLLQNQVDELERKFR [K8P], the protein stability index is 4.35.

Regarding DLSAANECNLLLQNQVDELERKFR [K8C], the protein stability index was 3.83.

As for DLSAANEKNLLLQNQVGELERKFR [D17G], the protein stability index turned out to be 3.46.

Regarding DLSAANEKNLLLQNQVHELERKFR [D17H], the protein stability index was determined as 2.99.

As for DLSAANEKNLLLQNQVSELERKFR [D17S], the protein stability index came out at 3.46.

With DLSAANEKNLLLQNQVAELERKFR [D17A], the protein stability index was determined as 3.58.

Consider DLSAANEKNLLLQNQVFELERKFR [D17F], for which the protein stability index is 2.81.

As to DLSAANEKNLLLQNQVLELERKFR [D17L], the protein stability index was 3.24.

For DLSAANEKNLLLQNQVMELERKFR [D17M], the protein stability index was 3.58.

With DLSAANEKNLLLQNQVIELERKFR [D17I], the protein stability index worked out at 3.01.

Regarding DLSAANMKNLLLQNQVDELERKFR [E7M], the protein stability index worked out at 3.14.

With DLSAANAKNLLLQNQVDELERKFR [E7A], the protein stability index turned out to be 3.5.

With DLSAANVKNLLLQNQVDELERKFR [E7V], the protein stability index was found to be 3.46.

On to DLSAANTKNLLLQNQVDELERKFR [E7T], for which the protein stability index was found to be 3.69.

With DLSAANIKNLLLQNQVDELERKFR [E7I], the protein stability index turned out to be 3.2.

Turning to DLSAANWKNLLLQNQVDELERKFR [E7W], the protein stability index is 2.72.

With DLSAANLKNLLLQNQVDELERKFR [E7L], the protein stability index was found to be 2.96.

For the variant DLSAANRKNLLLQNQVDELERKFR [E7R], the protein stability index was 3.84.

Regarding DLSAANGKNLLLQNQVDELERKFR [E7G], the protein stability index turned out to be 3.43.

With DLSAANHKNLLLQNQVDELERKFR [E7H], the protein stability index turned out to be 3.94.

As for DLSAANEKNLLKQNQVDELERKFR [L12K], the protein stability index stood at 3.77.

DLSAANEKNLLHQNQVDELERKFR [L12H]: the protein stability index came to 4.

As for DLSAANEKNLLSQNQVDELERKFR [L12S], the protein stability index was found to be 4.03.

For the variant DLSAANEKNLLVQNQVDELERKFR [L12V], the protein stability index amounted to 4.36.

Turning to DLSAANEKNLLAQNQVDELERKFR [L12A], the protein stability index was 4.37.

DLSAANEKNLLYQNQVDELERKFR [L12Y]: the protein stability index stood at 4.08.

Consider DLSAANEKNLLWQNQVDELERKFR [L12W], for which the protein stability index amounted to 3.48.

DLSAANEKNLLIQNQVDELERKFR [L12I]: the protein stability index was 4.25.

With DLSAANEKNLLPQNQVDELERKFR [L12P], the protein stability index was 4.18.

Turning to DLSAANEKNLLFQNQVDELERKFR [L12F], the protein stability index is 4.09.

DLSAANEKNLLLQNQVDERERKFR [L19R]: the protein stability index was determined as 3.68.

For DLSAANEKNLLLQNQVDEAERKFR [L19A], the protein stability index came to 4.58.

Turning to DLSAANEKNLLLQNQVDEGERKFR [L19G], the protein stability index amounted to 4.41.

For the variant DLSAANEKNLLLQNQVDENERKFR [L19N], the protein stability index came out at 4.27.

Regarding DLSAANEKNLLLQNQVDEWERKFR [L19W], the protein stability index came to 3.75.

Turning to DLSAANEKNLLLQNQVDEQERKFR [L19Q], the protein stability index stood at 3.99.

Consider ALSAANEKNLLLQNQVDELERKFR [D1A], for which the protein stability index worked out at 4.6.

Consider VLSAANEKNLLLQNQVDELERKFR [D1V], for which the protein stability index worked out at 4.34.

With LLSAANEKNLLLQNQVDELERKFR [D1L], the protein stability index was found to be 3.93.

SLSAANEKNLLLQNQVDELERKFR [D1S]: the protein stability index stood at 4.25.

Take ILSAANEKNLLLQNQVDELERKFR [D1I]: the protein stability index was 3.93.

Turning to QLSAANEKNLLLQNQVDELERKFR [D1Q], the protein stability index was 4.21.

Turning to PLSAANEKNLLLQNQVDELERKFR [D1P], the protein stability index is 4.17.

Consider ELSAANEKNLLLQNQVDELERKFR [D1E], for which the protein stability index worked out at 3.61.

As for KLSAANEKNLLLQNQVDELERKFR [D1K], the protein stability index came to 4.19.

For the variant DLSAANEKNLLLQNQVDELEDKFR [R21D], the protein stability index was 4.28.

DLSAANEKNLLLQNQVDELESKFR [R21S]: the protein stability index came to 4.23.

On to DLSAANEKNLLLQNQVDELEQKFR [R21Q], for which the protein stability index is 4.09.

Take DLSAANEKNLLLQNQVDELETKFR [R21T]: the protein stability index turned out to be 4.

Take DLSAANEKNLLLQNQVDELECKFR [R21C]: the protein stability index turned out to be 3.74.

Regarding DLSAANEKNLLLQNDVDELERKFR [Q15D], the protein stability index was 4.4.

As for DLSAANEKNLLLQNAVDELERKFR [Q15A], the protein stability index turned out to be 3.57.

As to DLSAANEKNLLLQNFVDELERKFR [Q15F], the protein stability index turned out to be 2.32.

On to DLSAANEKNLLLQNSVDELERKFR [Q15S], for which the protein stability index stood at 4.42.

As to DLSAANEKNLLLQNMVDELERKFR [Q15M], the protein stability index worked out at 3.77.

On to DLSAANEKNLLLQNVVDELERKFR [Q15V], for which the protein stability index was 3.48.

On to DLSAANEKNLLLQNRVDELERKFR [Q15R], for which the protein stability index turned out to be 3.5.

Consider DLSAANEKNLLLQNLVDELERKFR [Q15L], for which the protein stability index stood at 3.01.

For the variant DLSAANEKNLLLQNWVDELERKFR [Q15W], the protein stability index was 3.27.

In the case of DLSAANEKNLLLQNPVDELERKFR [Q15P], the protein stability index came out at 3.71.

As to DLSAANEKNLLLQNQVDELKRKFR [E20K], the protein stability index worked out at 3.2.

As to DLSAANEKNLLLQNQVDELWRKFR [E20W], the protein stability index worked out at 2.91.

Take DLSAANEKNLLLQNQVDELCRKFR [E20C]: the protein stability index is 3.73.

Turning to DLSAANEKNLLLQNQVDELDRKFR [E20D], the protein stability index was 4.25.

On to DLSAANEKNLLLQNQVDELSRKFR [E20S], for which the protein stability index is 3.8.

Values taken from the supplement of paper PMC10567573.
